{
  "source": "paper PMC2909260",
  "biological_target": "ILT2 (immunoglobulin-like transcript 2)/CD85j (human (endogenous in peripheral blood CD4+ T cells)) (UniProt Q8NHL6)",
  "sequence (Q8NHL6 24-650)": "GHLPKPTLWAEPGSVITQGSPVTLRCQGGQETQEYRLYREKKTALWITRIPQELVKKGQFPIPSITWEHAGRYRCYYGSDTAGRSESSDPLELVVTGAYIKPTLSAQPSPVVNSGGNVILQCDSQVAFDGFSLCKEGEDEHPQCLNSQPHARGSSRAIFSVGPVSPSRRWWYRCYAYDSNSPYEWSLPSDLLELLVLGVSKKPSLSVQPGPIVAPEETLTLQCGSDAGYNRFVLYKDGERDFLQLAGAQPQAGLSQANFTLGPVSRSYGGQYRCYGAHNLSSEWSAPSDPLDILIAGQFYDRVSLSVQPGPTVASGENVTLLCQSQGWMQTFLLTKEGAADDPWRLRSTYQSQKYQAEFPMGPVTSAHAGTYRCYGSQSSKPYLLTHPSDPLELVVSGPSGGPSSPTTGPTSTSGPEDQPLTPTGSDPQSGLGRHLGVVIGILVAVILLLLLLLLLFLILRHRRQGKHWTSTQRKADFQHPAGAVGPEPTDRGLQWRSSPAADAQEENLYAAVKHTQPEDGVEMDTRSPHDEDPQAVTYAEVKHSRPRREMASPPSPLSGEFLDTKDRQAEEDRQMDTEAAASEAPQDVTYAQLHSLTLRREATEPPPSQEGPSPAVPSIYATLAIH",
  "data": [
    {"substance": "soluble HLA-G (recombinant HLA-G1/G5 protein) (from UniProt P17693 25-308; P61769 21-119) (complex)", "values": [
      {"measurement": "% of inhibition of CXCR3 expression (flow cytometry) by sHLA-G on anti-CD3 stimulated CD4+ T cells, with blocking anti-ILT2/CD85j mAb (clone #292319, 1 ug/10^6 cells) added", "value": 31.5, "unit": "%"},
      {"measurement": "% of inhibition of CXCR3 expression (flow cytometry) by sHLA-G on anti-CD3 stimulated CD4+ T cells, with isotype-matched control mAb added (reference for the anti-ILT2 blocking)", "value": 47.5, "unit": "%"}
    ]}
  ]
}
